This experiment concerns the target HA-DGAT2 (hemagglutinin-tagged tung tree DGAT2) (Vernicia fordii (tung tree)) (UniProt Q0QJH9). Briefly: SDS-PAGE and immunoblotting of microsomal membranes. A general note: A western blot detects proteins with antibodies after separation by electrophoresis.

One may read the stoichiometry N as the number of molecules, sites or subunits per partner or assembly.

The substance “HA-DGAT2 (hemagglutinin-tagged tung tree DGAT2) (from UniProt Q0QJH9 2-322) (enzyme)” displayed a stoichiometry N of 2.

The values are drawn from publication PMC11338361.
